Values quoted from earlier work in paper PMC9028781.

What was measured:
[1] = target: YopB (nanodisc-embedded) (Yersinia pestis) (UniProt Q06114)
[2] = target: Substance P (Homo sapiens) (UniProt P20366)
Sequence of Substance P (Homo sapiens) (P20366 whole entry, looked up): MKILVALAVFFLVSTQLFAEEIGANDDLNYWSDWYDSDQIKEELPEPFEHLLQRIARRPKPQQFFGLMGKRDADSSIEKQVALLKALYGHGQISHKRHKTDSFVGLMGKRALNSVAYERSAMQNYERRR

Sequence of LcrV-EGFP (P0C7U7 whole entry): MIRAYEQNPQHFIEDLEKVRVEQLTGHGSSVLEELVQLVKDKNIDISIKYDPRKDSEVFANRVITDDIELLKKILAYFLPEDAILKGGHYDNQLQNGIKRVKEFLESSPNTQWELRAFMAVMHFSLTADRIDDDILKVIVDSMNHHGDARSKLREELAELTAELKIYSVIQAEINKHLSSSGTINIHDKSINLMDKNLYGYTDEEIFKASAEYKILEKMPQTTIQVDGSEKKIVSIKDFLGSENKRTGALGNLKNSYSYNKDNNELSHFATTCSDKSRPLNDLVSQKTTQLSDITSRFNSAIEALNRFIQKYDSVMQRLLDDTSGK
Sequence of YopB (nanodisc-embedded) (Yersinia pestis) (Q06114 whole entry): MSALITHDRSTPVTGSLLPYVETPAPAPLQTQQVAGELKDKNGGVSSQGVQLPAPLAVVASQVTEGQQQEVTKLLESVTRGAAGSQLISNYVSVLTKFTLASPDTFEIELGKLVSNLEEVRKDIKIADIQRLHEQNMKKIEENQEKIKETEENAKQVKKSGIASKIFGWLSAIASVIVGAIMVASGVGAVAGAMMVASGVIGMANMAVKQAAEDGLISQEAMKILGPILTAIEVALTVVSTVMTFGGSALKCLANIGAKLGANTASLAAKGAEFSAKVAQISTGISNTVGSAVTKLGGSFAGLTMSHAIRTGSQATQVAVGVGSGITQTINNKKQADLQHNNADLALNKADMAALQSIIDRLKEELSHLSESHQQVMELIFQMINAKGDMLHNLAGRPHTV
Sequence of Neurokinin-1 receptor (NK1R, nanodisc-embedded) (P25103 whole entry): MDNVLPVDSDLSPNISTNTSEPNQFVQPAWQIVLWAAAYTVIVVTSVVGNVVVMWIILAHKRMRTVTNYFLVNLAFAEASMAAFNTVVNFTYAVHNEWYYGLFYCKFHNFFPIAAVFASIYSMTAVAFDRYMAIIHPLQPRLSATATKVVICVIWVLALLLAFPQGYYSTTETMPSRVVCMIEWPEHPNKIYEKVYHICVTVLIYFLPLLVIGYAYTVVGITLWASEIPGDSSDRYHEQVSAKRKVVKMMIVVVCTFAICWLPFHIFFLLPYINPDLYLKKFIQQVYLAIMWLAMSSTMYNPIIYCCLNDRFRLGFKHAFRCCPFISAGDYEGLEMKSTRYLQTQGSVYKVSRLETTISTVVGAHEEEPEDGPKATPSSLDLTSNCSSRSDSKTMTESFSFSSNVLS

For LcrV-EGFP (from UniProt P0C7U7), the Kd [1] is listed as 20 nM.
For “Neurokinin-1 receptor (NK1R, nanodisc-embedded) (from UniProt P25103)”, the Kd [2] is listed as 83 nM.
